Target: FcγRIIIa receptor immobilised on the TSKgel FcR-IIIA-NPR column (UniProt P08637)
Assay: FcγRIIIa affinity chromatography; FcγRIIIa immobilised on a TSKgel FcR-IIIA-NPR column (4.6 x 75 mm); antibody injected (20 µL); 0.05 M sodium citrate, 0.150 M NaCl, 10 min at pH 6.5, then linear gradient to pH 4.5 in 40 min; 0.375 mL/min; 20°C; UV 280 nm; eluting peaks collected and their glycoforms assigned by HILIC-MS

Chain of UniProt P08637 (P08637 17-208): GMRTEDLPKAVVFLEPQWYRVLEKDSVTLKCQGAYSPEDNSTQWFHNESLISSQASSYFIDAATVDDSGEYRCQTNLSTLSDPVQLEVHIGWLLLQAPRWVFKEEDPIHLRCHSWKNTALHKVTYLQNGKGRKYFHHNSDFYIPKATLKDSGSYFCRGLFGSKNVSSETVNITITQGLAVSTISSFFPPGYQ

## rituximab produced in wild-type N. benthamiana agroinfiltrated in the presence of the kifunensine mannosidase I inhibitor (antibody)
  RT (min) on the FcγRIIIa column, peak #1 (Man8 14%, Man9 86%): 24.9 min

## commercial rituximab (MabThera) produced in CHO cells (antibody)
  RT (min) on the FcγRIIIa column, peak #1 (G0F 74%, G1F 25%): 22.9 min
  RT (min) on the FcγRIIIa column, peak #2 (G0F 43%, G1F 43%, G2F 14%): 28.2 min
  RT (min) on the FcγRIIIa column, peak #3 (G1F 72%, G2F 28%): 33.2 min

## rituximab produced in wild-type N. benthamiana, G0 glycoform (antibody)
  RT (min) on the FcγRIIIa column, peak #1 (G0 100%): 30.3 min

## rituximab produced in glycoengineered ΔXF N. benthamiana plants (antibody)
  RT (min) on the FcγRIIIa column, peak #1 (G0 100%): 30.5 min

Source: PMC12246787
